Laboratory results: patent US20170248602A1

What was measured:
[1] = target: SNAP-25 peptide comprising amino acids 134-197 of SEQ ID NO:5 (human); experiment: SPR (BIAcore 3000), peptide on CM5 chip, 1:1 fit
[2] = target: SNAP-25 peptide comprising amino acids 134-206 of SEQ ID NO:5 (human); experiment: SPR (BIAcore 3000), peptide on CM5 chip, 1:1 fit

Substance	Kd [1] [nM]	koff [1] [s⁻¹]	kon [1] [M⁻¹ s⁻¹]	Kd [2] [nM]	koff [2] [s⁻¹]	kon [2] [M⁻¹ s⁻¹]
MC-6050 mouse α-SNAP-25 monoclonal antibody (Research & Diagnostic Antibodies)	0.497	0.000882	1.78e+06	19800	0.00607	306
MC-6053 mouse α-SNAP-25 monoclonal antibody (Research & Diagnostic Antibodies)	0.508	0.00118	2.32e+06	240	2.56e-05	–
